T1: Human CD19 expressed on cell surfaces (Raji cells; CD19-K562 cells) (human, UniProt P15391 20-556)
T1 construct: whole, on cells; also called antigen CD19; human CD19 antigen
T1 sequence (looked up): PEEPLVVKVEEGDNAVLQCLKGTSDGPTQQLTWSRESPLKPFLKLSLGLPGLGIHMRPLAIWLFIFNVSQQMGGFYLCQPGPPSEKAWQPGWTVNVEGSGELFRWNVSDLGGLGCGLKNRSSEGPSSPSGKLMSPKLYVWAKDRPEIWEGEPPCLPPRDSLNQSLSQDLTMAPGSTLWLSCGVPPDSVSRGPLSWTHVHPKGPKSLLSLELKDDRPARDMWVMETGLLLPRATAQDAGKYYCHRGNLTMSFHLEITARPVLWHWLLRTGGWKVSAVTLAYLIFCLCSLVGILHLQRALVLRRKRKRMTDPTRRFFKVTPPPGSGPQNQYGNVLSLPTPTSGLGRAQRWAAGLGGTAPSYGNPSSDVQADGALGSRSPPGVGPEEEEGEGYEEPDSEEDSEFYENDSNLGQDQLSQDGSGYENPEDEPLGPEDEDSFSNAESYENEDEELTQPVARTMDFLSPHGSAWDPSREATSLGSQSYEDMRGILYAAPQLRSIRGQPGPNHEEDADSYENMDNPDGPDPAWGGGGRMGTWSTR

B1: h2FMC63VH + L5F3 (antibody, V domains shown)
VH: EVQLVESGGGLVQPGGSLRLSCAASGVSLPDYGVSWVRQAPGKGLEWVSVIWGSETTYYNSALKSRFTISRDNAKNSLYLQMNSLRAEDTAVYYCAKHYYYGGSYAMDYWGQGTLVTVSS
VL: SYELTQPPSVSVAPGQTARITCGGNNLGDNSARWYQQKPGQAPVLVIYGNSNRPSGIPERFSGSNSGNTATLTISGTQAEDEADYYCQVTDTRSTSVVFGGGTKLTVL
notes: Humanized monoclonal antibody transiently expressed in HEK293 cells, with heavy chain from pTSEG1n-h2FMC63VH; also called L5F3 (humanized antibody)
B2: h2FMC63VH + L2D12 (antibody, V domains shown)
VH: EVQLVESGGGLVQPGGSLRLSCAASGVSLPDYGVSWVRQAPGKGLEWVSVIWGSETTYYNSALKSRFTISRDNAKNSLYLQMNSLRAEDTAVYYCAKHYYYGGSYAMDYWGQGTLVTVSS
VL: SYELTQPPSVSVAPGQTARITCGGNDLRAQYVHWYQQKPGQAPVLVMYDDSKRPSGIPERFSGSNSGNTATLTISGTQAEDEADYYCQSWDRTSEPKVFGGGTKLTVL
notes: Humanized monoclonal antibody transiently expressed in HEK293 cells, with heavy chain from pTSEG1n-h2FMC63VH; also called L2D12 (humanized antibody)
B3: h2FMC63VH + L2D8 (antibody, V domains shown)
VH: EVQLVESGGGLVQPGGSLRLSCAASGVSLPDYGVSWVRQAPGKGLEWVSVIWGSETTYYNSALKSRFTISRDNAKNSLYLQMNSLRAEDTAVYYCAKHYYYGGSYAMDYWGQGTLVTVSS
VL: DIQMTQSPSSLSASVGDRVTITCRASQSVGSFLAWYQQKPGKAPKLLIYGASSRESGVPSRFSGSGSGTDFTLTISSLQPEDFATYYCQQTYHNPETFGQGTKVEIK
notes: Humanized monoclonal antibody transiently expressed in HEK293 cells, with heavy chain from pTSEG1n-h2FMC63VH; also called L2D8 (humanized antibody)
B4: hFMC63 (antibody, V domains shown)
VH: QVQLQESGPGLVKPSETLSLTCTVSGVSLPDYGWSWIRQPPGKGLEWIGRIWGSETTYYNPSLKSRVTISVDTSKNQFSLKLSSVTAADTAVYYCAKHYYYGGSYAMDYWGQGTLVTVSS
VL: DIQMTQTTSSLSASLGDRVTISCRASQDISKYLNWYQQKPDGTVKLLIYHTSRLHSGVPSRFSGSGSGTDYSLTISNLEQEDIATYFCQQGNTLPYTFGGGTKLEIK
notes: Humanized heavy chain hFMC63VH in pTSEG1n-S (human heavy constant)
B5: h1FMC63 (antibody, V domains shown)
VH: QVQLQESGPGLVKPSETLSLTCTVSGVSLPDYGVSWIRQPPGKGLEWIGVIWGSETTYYNSALKSRVTISVDTSKNQFSLKLSSVTAADTAVYYCAKHYYYGGSYAMDYWGQGTLVTVSS
VL: DIQMTQTTSSLSASLGDRVTISCRASQDISKYLNWYQQKPDGTVKLLIYHTSRLHSGVPSRFSGSGSGTDYSLTISNLEQEDIATYFCQQGNTLPYTFGGGTKLEIK
notes: Humanized heavy chain h1FMC63VH in pTSEG1n-S (human heavy constant)
B6: h2FMC63 (antibody, V domains shown)
VH: EVQLVESGGGLVQPGGSLRLSCAASGVSLPDYGVSWVRQAPGKGLEWVSVIWGSETTYYNSALKSRFTISRDNAKNSLYLQMNSLRAEDTAVYYCAKHYYYGGSYAMDYWGQGTLVTVSS
VL: DIQMTQTTSSLSASLGDRVTISCRASQDISKYLNWYQQKPDGTVKLLIYHTSRLHSGVPSRFSGSGSGTDYSLTISNLEQEDIATYFCQQGNTLPYTFGGGTKLEIK
notes: Humanized heavy chain h2FMC63VH in pTSEG1n-S (human heavy constant); also called third version of a humanized antibody

Target: T1, Human CD19 expressed on cell surfaces …
Assay: flow cytometry on CD19-K562 cells

Question: For B1, which “MFI(Geo)” value is on record?
Answer: 147

Question: Which “MFI(Geo)” value does the source give for B2 here?
Answer: 55.5

Question: Which “MFI(Geo)” value does the source give for B3 here?
Answer: 125

Target: T1, Human CD19 expressed on cell surfaces …
Assay: flow cytometry on Raji cells
Protocol: Raji cell is a strain derived from human B lymphoma cell line. Raji cells were purchased from Chinese Academy of Medical Sciences, Institute of Basic Medical Cell Resource Center. The surface of Raji cells expresses antigen CD19, and the anti-CD19 antibody can be used to analyze the binding capacity of recombinant humanized monoclonal antibodies. By flow cytometry (IFA), binding abilities of the four recombinant humanized antibodies were analyzed.

Question: For B4, which “MFI (GeoMean)” value is on record?
Answer: 67

Question: B5 was tested. Which “MFI (GeoMean)” value did it give?
Answer: 186

Question: For B6, which “MFI (GeoMean)” value is on record?
Answer: 330

— patent US20200030424A1 (INNOVATIVE CELLULAR THERAPEUTICS, published 2020)
